In the DeepSol protein solubility set:

Test: soluble on expression in E. coli; label from the status in PepcDB or PDB records
For “MVRVGILGASGYGGAELLRLLKAHPEVELVGFSSRKYEGRPLEAAWPQLWDGRLFAAQEEVLERAEVVFLALPNGLSMEIAPEALKAGKRVVDLSGDFRLPPEVYEAWYRIPHKSPDLYREAVYGLPELHREELKGARLVANPGCYVTAATLALAPLAAEGVLKGAFVVGLSGVSGAGREAEGTAFAEVNENLKPYKAGGTHRHIPEMERNLGRILAQGRRVRTHGEARAVRLSFTPHLVPMTRGILVTAEAEVEGAWSQESLEALYRDFYAGEPFVRVLKGLPETKATLGSNRVDVRPLYEERTGRVLVFAALDNLVKGMAGQAVQNLNLMLGLPEETALPKEGLWP”, the “soluble on expression in E. coli” value was “soluble”.
With “MVSCQGTRPCIVNLLTMPSEDKLGEEISTRVINEYSKLKSACRPIIRPSGIREWTILAGVAAINRDGGANKIEILSIATGVKALPDSELQRSEGKILHDCHAEILALRGANTVLLNRIQNYNPSSGDKFIQHNDEIPARFNLKENWELALYISRLPCGDASMSFLNDNCKNDDFIKIEDSDEFQYVDRSVKTILRGRLNFNRRNVVRTKPGRYDSNITLSKSCSDKLLMKQRSSVLNCLNYELFEKPVFLKYIVIPNLEDETKHHLEQSFHTRLPNLDNEIKFLNCLKPFYDDKLDEEDVPGLMCSVKLFMDDFSTEEAILNGVRNGFYTKSSKPLRKHCQSQVSRFAQWELFKKIRPEYEGISYLEFKSRQKKRSQLIIAIKNILSPDGWIPTRTDDVK” the “soluble on expression in E. coli” value was “not soluble”.
With “MVSQTERQHAIASLLAPTGAVSVGDLAEHFHVTTETVRRDLRIMESLGLLQRVHGGAISPEPMGTSPPRLKPALGKGMPPEPRVLELAETAVSLITPLARSIFLDSGLACTAIATVLGDPPEDARWTVVTSSPGAVIALSATDATSTVVLHGQVHGNCSSIIGSTAVDMISQLRADIAFVEVDAIQSDTSLCTFFPETIPIKQAMIKNAAFTVAVLSPRSPQDQELQLLKHPFSTLADFDALVTDDHTLDFPVLPDHNFQVVTPLEHHHHHH” the “soluble on expression in E. coli” value was “soluble”.
In the case of “MVTKAKQIREKESKVAEFKYKNLTQEEQDKLDAATFRRLLAHLDANKDVQNIDLMILAGFCRNCFSKWYKAEAENLSLDLDIDDARERVYGMTYDEWKQNHQPAATPEQLAAFEARQKK”, the “soluble on expression in E. coli” value is reported as “not soluble”.
For “MVTPLTGTHEGVSCDGCAFTAFAGNRYKCLRCSDYDLCFSCFTTKNYGDQQTIADIPIHDESHPMQLILSSVDFDLVYQGDPTRHYDERKIVSFTCPYCNITGLTERQFGTHVLSQHPEAPGYSVICPLCIGNTEMEHIQSKETENLSVHWTEIHLHTMENLFRSTEPITTRPVQRRPMLARRGNRAGVSRTAAQGRPLQDEIGAEMAALLRNMGPDSVEDIRRFTEMMTVPLLPGIRSSQRLMTSTGDRPTVVVESAVTHQDPNVQQVIRPLATIPIYPPTSDESGDETPQPAADSADESEDDNDIQELDDMQPIVEDEALKKDEFWKTLKTRISEEDVDLILETMKSTAKVKEDIDDKMPVWTQRPLKRLANAAQVTTTSDSEGDPGWLPLSFETTPIRSTGCGGYWSDKRFLRPRKMQREQSVASSNAEIMEKAEIALALIRASCLHEPVFTDPTKPDIALKEALQHLRLGEKPAKMMEYQAAEELVNMPERDPITTGEMEVEIPDFTARGYGQIVDGNIPLGVVPEADEAITNSEDEEIVGGETSGDDEDEQEDDENDSQDSSVPEEINID”, the “soluble on expression in E. coli” value was “not soluble”.
With “MVVLHVKRGDESQFLLQAPGSTELEELTAQVARVYNGRLKVHRLCSEMEELAEHGVFLHPNMQGLTDEQIEELKLKDEWGEKCVPSGGSVFTKDEIGRRNGQAPNEKMKQVLKKTVEEAKAIVSKKQVEAGVFVTMEMVKDALDQLRGAVMIVYPMGLPPYDPIRMEFENKEDLSGTQAALEVIQESEAQLWWAAKELRRTKKLSDYVGKNEKTKIIVKIQQRGQGAPAREPVISSEEHKQLMLFYHRRQEELKKLEENDDDSCLNSPWADNTALKRHFHGVKDIKWRPR” the “soluble on expression in E. coli” value was “soluble”.
For “MVVRTWRSMQERYNLIGSKCKTCGTVYFPARSVCPECRRKGELEDYKLNGKGKVYTYSVVYAAPKDFEKQSPYVIGIVELEEGTKITSQIDCEPEEVKIGMPVEATFRKIREDGCDGVISYGYKFVPTEQ”, the “soluble on expression in E. coli” value was “not soluble”.
With “MVYVAITIVRVPGPAFSYHCPDFVRLYIEAMGYSPTIAPARIRVWRNAITEQGFVAVCAIDDSSDNPAAIGEGIVGIGYGFTGRSEHWWDQQIHRGLAEQKCPPVARPYFELAELHVSPRAQGQGIGRSLLHALIKHCGHELILLSTPEVPDEKNAAFHLYRSCGFDDLLRNFMFEGDRRPFAVLQRKAHRN” the “soluble on expression in E. coli” value was “not soluble”.
For “MVYYEIIKDIVFTYNLQFTHLIHNDRISEVNLGGVTMRSIITQICNGVLHGQSYQSGSNDLDKGNSEIFASSLFVHLNEQGKEIIKHKDSDDKIVIGYTKDGMAFQIVVDGFYGCERQAVFSFIDNYVLPLIDNFSLDLTRYPDSKKVTESLIHTIYSLRSKHAPLAEFTMSLCVTYQKDEQLFCAGFGIGDTGIAIKRNEGTIEQLVCHTEVDGFKDAFDNYSSANIDLVIERNSVFNTKVMPGDELVGYTYVPPMLEMTEKEFEVETVDGKKINKRIVRHLNLDPGNFDDKDPLFSQLLQVVKSKQKQLVEQAKETGQIQRFGDDFTVGRLVIPDQLLINQLRIHALSIGVSDGLLSYIKNENENKGFLGIYGFFTGADKNIEKATLYKNLIAKYQNNHFISLIILSALVSDSKTPLMTQYLVGYLDFPSKALLANKITELLLKELENPDMREILGSRLATDVIEELETKIIRYIHNPAGSDIHSTLNLWTADKIKAATNSSLTI”, the “soluble on expression in E. coli” value was “not soluble”.
In the case of “MWAFRTARIGSLLAATSVILRRCLRLGVAMAKSKFEYVRNFEVQDTCLPHCWVVVRLDGRNFHRFAEEHNFAKPNDSRALHLMTKCAQTVMEELEDIVIAYGQSDEYSFVFRKKSNWFKRRASKFMTLVASQFASSYVFYWRDYFEDQPLRYPPGFDGRVVLYPSNQTLKDYLSWRQADCHINNLYNTVFWALIQQSGLTPVQAQQRLKGTLTADKNEILFSEFHINYNNEPHMYRKGTVLVWQKVEEVRTQEVRLPAEMEGEKKAVARTRTRVVALNCDLIGDAFWKEHPEILAEEN”, the “soluble on expression in E. coli” value is reported as “soluble”.
For “MWESKFVKEGLTFDDVLLVPAKSDVLPREVSVKTVLSESLQLNIPLISAGMDTVTEADMAIAMARQGGLGIIHKNMSIEQQAEQVDKVKRSESGVISDPFFLTPEHQVYDAEHLMGKYRISGVPVVNNLDERKLVGIITNRDMRFIQDYSIKISDVMTKEQLITAPVGTTLSEAEKILQKYKIEKLPLVDNNGVLQGLITIKDIEKVIEFPNSAKDKQGRLLVGAAVGVTADAMTRIDALVKASVDAIVLDTAHGHSQGVIDKVKEVRAKYPSLNIIAGNVATAEATKALIEAGANVVKVGIGPGSICTTRVVAGVGVPQLTAVYDCATEARKHGIPVIADGGIKYSGDMVKALAAGAHVVMLGSMFAGVAESPGETEIYQGRQFKVYRGMGSVGAMEKGSKDRYFQEGNKKLVPEGIEGRVPYKGPLADTVHQLVGGLRAGMGYCGAQDLEFLRENAQFIRMSGAGLLESHPHHVQITKEAPNYSL”, the “soluble on expression in E. coli” value was “not soluble”.
With “MWKFATRLGLESVDTIAATNPREAIAAVAAGQADYACVAIENSVDGPVTPTFDALATIDGVRIFHELDLPIAFAIMQRTGAPLRRFATHPVAYQQVKTWLAANAPAAEFVPASSNAEAARMAKENIVDFAAAPARAAEVYGLDIIADGVADVTGARTRFVLVGHADT” the “soluble on expression in E. coli” value was “not soluble”.
With “MWNAGRETSSPGTELSENQAKKEKERLIKELQLITEERNDLRDRLRFLTERSMKNRSHFRPNPYYEDLERMEEAVMSILHNLEMENTEVHENNHKLKKEITFSR” the “soluble on expression in E. coli” value was “soluble”.
With “MWPRNDVHMDDGSMTPEDQEPVTDNDMEYNDNGEESSYSNGSSSSYNADKLSSSRPLQHKLDLSASPSRNNDLNPRVEHLIALFKDLSSAEQMDAFTRLLQESNMTNIRQLRAIIEPHFQRDFLSCLPVELGMKILHNLTGYDLLKVAQVSKNWKLISEIDKIWKSLGVEEFKHHPDPTDRVTGAWQGTAIAAGVTIPDHIQPCDLNVHRFLKLQKFGDIFERAADKSRYLRADKIEKNWNANPIMGSAVLRGHEDHVITCMQIHDDVLVTGSDDNTLKVWCIDKGEVMYTLVGHTGGVWTSQISQCGRYIVSGSTDRTVKVWSTVDGSLLHTLQGHTSTVRCMAMAGSILVTGSRDTTLRVWDVESGRHLATLHGHHAAVRCVQFDGTTVVSGGYDFTVKIWNAHTGRCIRTLTGHNNRVYSLLFESERSIVCSGSLDTSIRVWDFTRPEGQECVALLQGHTSLTSGMQLRGNILVSCNADSHVRVWDIHEGTCVHMLSGHRSAITSLQWFGRNMVATSSDDGTVKLWDIERGALIRDLVTLDSGGNGGCIWRLCSTSTMLACAVGSRNNTEETKVILLDFDAVYP” the “soluble on expression in E. coli” value was “not soluble”.
